The target of one assay is T1, human ActRIIA (human, UniProt P27037 20-135, limits assumed).
T1 construct: antigen in MSD-SET; also called ACVR2A; ActR2A
The assay can be described thus: MSD-SET.

For assay [1], the target named is T2, human ActRIIB (human, UniProt Q13705 19-137, limits assumed).
T2 construct: antigen in MSD-SET; also called ACVR2B; ActR2B
T2 sequence: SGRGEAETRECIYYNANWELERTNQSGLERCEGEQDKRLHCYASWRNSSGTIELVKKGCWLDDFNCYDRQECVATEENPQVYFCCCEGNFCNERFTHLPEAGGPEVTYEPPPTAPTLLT
In words: MSD-SET.

Assay [2] concerns the target T3, ActRIIA and ActRIIB (on TGFB/SMAD SBE Reporter HEK293 cells) (human). The assay can be described thus: cell-based or functional assay.
Assay [3] has as its target T2, human ActRIIB. In words: MSD-SET. The source holds these as a separate data set.
The target of assay [4] is T3, ActRIIA and ActRIIB (on TGFB/SMAD SBE …). The assay can be described thus: cell-based or functional assay. The source holds these as a separate data set.

Where two headings read alike, the source gives them in different places.

T1 sequence (P27037 20-135 limits assumed): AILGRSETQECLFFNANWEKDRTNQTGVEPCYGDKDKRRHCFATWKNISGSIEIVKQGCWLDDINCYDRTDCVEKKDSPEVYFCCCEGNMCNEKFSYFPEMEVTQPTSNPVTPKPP

B1: Antibody Hutzelbrot (antibody, V domains shown)
VH: QVQLVQSGAEVKKPGASVKVSCKASGYTFTSSYINWVRQAPGQGLEWMGTINAVSGSTSYAQKFQGRVTMTRDTSISTAYMELSRLRSDDTAVYYCARGGWFDYWGQGTLVTVSS
VL: QSALTQPASVSGSPGQSITISCTGTSSDVGSKNYVNWYQQHPGKAPKLMIYGVSKRQSGVSNRFSGSKSGNTASLTISGLQAEDEADYYCGTFAGGDYYGVFGGGTKLTVL
notes: full-length IgG
What is called Kd is the free concentration of one partner at which half of the binding sites on the other are occupied at equilibrium, for simple one-to-one binding. Read a high Kd as a looser complex. For B1, binding with human ActRIIA was put at a Kd of 0.021 nM. Further, the Kd with human ActRIIB [1] was 0.01 nM. Further, in assay [2], the IC50, Activin SMAD RGA worked out at 0.422 nM; the IC50, Myostatin SMAD RGA stood at 0.73 nM; the IC90, Activin SMAD RGA amounted to 3.62 nM; the IC90, Myostatin SMAD RGA was found to be 3.06 nM.

B2: Ofaschlupfer, Mouse IgG2a-PALALA (antibody, V domains shown)
VH: QVQLVQSGAEVKKPGSSVKVSCKASGYTFTSSYINWVRQAPGQGLEWMGTINAVSGSTSYAQKFQGRVTITADTSTSTAYMELSSLRSEDTAVYYCARGGWFDYWGQGTLVTVSS
VL: QSALTQPRSVSGSPGQSVTISCTGTSSDVGSKNYVNWYQQHPGKAPKLMIYGVSKRESGVPDRFSGSKSGNTASLTISGLQAEDEADYYCGTFAGGKYYGVFGGGTKLTVL
notes: mouse IgG2a constant region with PALALA
The molecule B2 displayed a dissociation constant (Kd) in the assay with human ActRIIB [3] of 0.004 nM.

B3: Antibody Schnitzbrot (antibody, V domains shown)
VH: QVQLVQSGAEVKKPGSSVKVSCKASGYKFTSSYINWVRQAPGQGLEWMGTINAVSGSTSYAQKFQGRVTITADTSTSTAYMELSSLRSEDTAVYYCARGGWFDYWGQGTLVTVSS
VL: QSALTQPRSVSGSPGQSVTISCTGTSSDVGSYNYVNWYQQHPGKAPKLMIYGVSKRDSGVPDRFSGSKSGNTASLTISGLQAEDEADYYCGTFAGGKYYGVFGGGTKLTVL
As for B3, in assay [4], the IC50, Activin SMAD RGA worked out at 0.312 nM; the IC50, Myostatin SMAD RGA is 0.624 nM; the IC90, Activin SMAD RGA came out at 2.52 nM; the IC90, Myostatin SMAD RGA was found to be 19.1 nM.

B4: Antibody Hegemark (antibody, V domains shown)
VH: QVQLVQSGAEVKKPGSSVKVSCKASGYKFTSSYINWVRQAPGQGLEWMGTINAVSGSTSYAQKFQGRVTITADTSTSTAYMELSSLRSEDTAVYYCARGGWFDYWGQGTLVTVSS
VL: QSALTQPRSVSGSPGQSVTISCTGTSSDVGSKNYVNWYQQHPGKAPKLMIYGVSKRHSGVPDRFSGSKSGNTASLTISGLQAEDEADYYCGTFAGGKYYGVFGGGTKLTVL
For the molecule B4, in assay [4], the IC50, Activin SMAD RGA came out at 0.304 nM; the IC50, Myostatin SMAD RGA is 0.516 nM; the IC90, Activin SMAD RGA is 4.37 nM; the IC90, Myostatin SMAD RGA was 23.4 nM.

B5: Antibody Seela (antibody, V domains shown)
VH: QVQLVQSGAEVKKPGSSVKVSCKASGYKFTSSYINWVRQAPGQGLEWMGTINAVSGSTSYAQKFQGRVTITADTSTSTAYMELSSLRSEDTAVYYCARGGWFDYWGQGTLVTVSS
VL: QSALTQPRSVSGSPGQSVTISCTGTSSDVGSKNYVNWYQQHPGKAPKHMIYGVSKRESGVPDRFSGSKSGNTASLTISGLQAEDEADYYCGTFAGGKYYGVFGGGTKLTVL
In assay [4], B5 showed an IC50, Activin SMAD RGA of 0.338 nM; an IC50, Myostatin SMAD RGA of 0.473 nM; an IC90, Activin SMAD RGA of 4.74 nM; an IC90, Myostatin SMAD RGA of 18.2 nM.

B6: Antibody Metzelsupp (antibody, V domains shown)
VH: QVQLVQSGAEVKKPGSSVKVSCKASGYTFTSSYINWVRQAPGQGLEWMGTINAVSGSTSYAQKFQGRVTITADTSTSTAYMELSSLRSEDTAVYYCARGGWFDYWGQGTLVTVSS
VL: QSALTQPRSVSGSPGQSVTISCTGTSSDVGSFNYVNWYQQHPGKAPKLMIRGVSKRESGVPDRFSGSKSGNTASLTISGLQAEDEADYYCGTFAGGAYYGVFGGGTKLTVL
In assay [4], B6 came in with an IC50, Activin SMAD RGA of 0.573 nM; an IC50, Myostatin SMAD RGA of 0.713 nM; an IC90, Activin SMAD RGA of 3.79 nM; an IC90, Myostatin SMAD RGA of 7.72 nM.

B7: Antibody Rauchfloisch (antibody, V domains shown)
VH: QVQLVQSGAEVKKPGSSVKVSCKASGYTFTSSYINWVRQAPGQGLEWMGTINAVSGSTSYAQKFQGRVTITADTSTSTAYMELSSLRSEDTAVYYCARGGWFDYWGQGTLVTVSS
VL: QSALTQPRSVSGSPGQSVTISCTGTSSDVGSRNYVNWYQQHPGKAPKLMIYGVSKRESGVPDRFSGSKSGNTASLTISGLQAEDEADYYCGTFAGGDYYGVFGGGTKLTVL
In assay [4], B7 came in with an IC50, Activin SMAD RGA of 0.668 nM; an IC50, Myostatin SMAD RGA of 1.31 nM; an IC90, Activin SMAD RGA of 5.11 nM; an IC90, Myostatin SMAD RGA of 18.2 nM.

B8: Antibody Peitscheschdegga (antibody, V domains shown)
VH: QVQLVQSGAEVKKPGSSVKVSCKASGYKFTSSYINWVRQAPGQGLEWMGTINAVSGSTSYAQKFQGRVTITADTSTSTAYMELSSLRSEDTAVYYCARGGWFDYWGQGTLVTVSS
VL: QSALTQPRSVSGSPGQSVTISCTGTSSDVGSKNYVNWYQQHPGKAPKLMIHGVSKRESGVPDRFSGSKSGNTASLTISGLQAEDEADYYCGTFAGGKYYGVFGGGTKLTVL
Turning to B8, in assay [4], the IC50, Activin SMAD RGA is 0.299 nM; the IC50, Myostatin SMAD RGA stood at 2.84 nM; the IC90, Activin SMAD RGA worked out at 4.92 nM; the IC90, Myostatin SMAD RGA worked out at 48.4 nM.

B9: Antibody Oierspätzla (antibody, V domains shown)
VH: QVQLVQSGAEVKKPGSSVKVSCKASGYTFTSSYINWVRQAPGQGLEWMGTINPVSGSTSYAQKFQGRVTITADTSTSTAYMELSSLRSEDTAVYYCARGGWFDYWGQGTLVTVSS
VL: QSALTQPRSVSGSPGQSVTISCTGTSSDVGSYNYVNWYQQHPGKAPKLMIYGVSKRESGVPDRFSGSKSGNTASLTISGLQAEDEADYYCGTFAGGAYYGVFGGGTKLTVL
Turning to B9, in assay [4], the IC50, Activin SMAD RGA was found to be 0.361 nM; the IC50, Myostatin SMAD RGA worked out at 0.96 nM; the IC90, Activin SMAD RGA came out at 3.06 nM; the IC90, Myostatin SMAD RGA was determined as 16.8 nM.

B10: Antibody Wiebela (antibody, V domains shown)
VH: QVQLVQSGAEVKKPGSSVKVSCKASGYKFTSSYINWVRQAPGQGLEWMGTINAVSGSTSYAQKFQGRVTITADTSTSTAYMELSSLRSEDTAVYYCARGGWFDYWGQGTLVTVSS
VL: QSALTQPRSVSGSPGQSVTISCTGTSSDVGSKNYVNWYQQHPGKAPKLMIYGVSKRESGVPDRFSGSKSGNTASLTISGLQAEDEADYYCGTFAGGKYYGVFGGGTKLTVL
In assay [4], B10 returned an IC50, Activin SMAD RGA of 0.253 nM; an IC50, Myostatin SMAD RGA of 0.25 nM; an IC90, Activin SMAD RGA of 3.96 nM; an IC90, Myostatin SMAD RGA of 14.8 nM.

B11: Antibody Zibebe (antibody, V domains shown)
VH: QVQLVQSGAEVKKPGSSVKVSCKASGYKFTSSYINWVRQAPGQGLEWMGTINAVSGSTSYAQKFQGRVTITADESTSTAYMELSSLRSEDTAVYYCARGGWFDYWGQGTLVTVSS
VL: QSALTQPRSVSGSPGQSVTISCTGTSSDVGSYNYVNWYQQHPGKAPKLMIYGVSKRESGVPDRFSGSKSGNTASLTISGLQAEDEADYYCGTFAGGKYYGVFGGGTKLTVL
Regarding B11, in assay [4], the IC50, Activin SMAD RGA was determined as 0.542 nM; the IC50, Myostatin SMAD RGA amounted to 1.46 nM; the IC90, Activin SMAD RGA was 7.83 nM; the IC90, Myostatin SMAD RGA turned out to be 19 nM.

B12: Antibody Nonnafürzla (antibody, V domains shown)
VH: QVQLVQSGAEVKKPGSSVKVSCKASGYTFTSSYINWVRQAPGQGLEWMGTINAVSGSTSYAQKFQGRVTITADTSTSTAYMELSSLRSEDTAVYYCARGGWFDYWGQGTLVTVSS
VL: QSALTQPRSVSGSPGQSVTISCTGTSSDVGSYNYVNWYQQHPGKAPKLMIYGVSKRDSGVPDRFSGSKSGNTASLTISGLQAEDEADYYCGTFAGGKYYGVFGGGTKLTVL
In assay [4], B12 showed an IC50, Activin SMAD RGA of 0.505 nM; an IC50, Myostatin SMAD RGA of 1.32 nM; an IC90, Activin SMAD RGA of 3.81 nM; an IC90, Myostatin SMAD RGA of 27.3 nM.

B13: Ofaschlupfer, Human IgG1-PALALA-YTE (antibody, V domains shown)
VH: QVQLVQSGAEVKKPGSSVKVSCKASGYTFTSSYINWVRQAPGQGLEWMGTINAVSGSTSYAQKFQGRVTITADTSTSTAYMELSSLRSEDTAVYYCARGGWFDYWGQGTLVTVSS
VL: QSALTQPRSVSGSPGQSVTISCTGTSSDVGSKNYVNWYQQHPGKAPKLMIYGVSKRESGVPDRFSGSKSGNTASLTISGLQAEDEADYYCGTFAGGKYYGVFGGGTKLTVL
notes: human IgG1 with PA-LALA (L234A/L235A/P329A) and YTE (M252Y/S254T/T256E), EU numbering
With B13, binding in the assay with human ActRIIB [3] was characterised by a dissociation constant (Kd) of 0.003 nM.

B14: Antibody Krapfa (antibody, V domains shown)
VH: QVQLVQSGAEVKKPGSSVKVSCKASGHKFTSSYINWVRQAPGQGLEWMGTINAVSGSTSYAQKFQGRVTITADTSTSTAYMELSSLRSEDTAVYYCARGGWFDYWGQGTLVTVSS
VL: QSALTQPRSVSGSPGQSVTISCTGTSSDVGSKNYVNWYQQHPGKAPKLMIYGVSKRESGVPDRFSGSKSGNTASLTISGLQAEDEADYYCGTFAGGKYYGVFGGGTKLTVL
As to B14, in assay [4], the IC50, Myostatin SMAD RGA came out at 0.0497 nM and the IC90, Myostatin SMAD RGA came out at 10400 nM.

B15: Ofaschlupfer, Human IgG1-PALALA (antibody, V domains shown)
VH: QVQLVQSGAEVKKPGSSVKVSCKASGYTFTSSYINWVRQAPGQGLEWMGTINAVSGSTSYAQKFQGRVTITADTSTSTAYMELSSLRSEDTAVYYCARGGWFDYWGQGTLVTVSS
VL: QSALTQPRSVSGSPGQSVTISCTGTSSDVGSKNYVNWYQQHPGKAPKLMIYGVSKRESGVPDRFSGSKSGNTASLTISGLQAEDEADYYCGTFAGGKYYGVFGGGTKLTVL
notes: human IgG1 with PA-LALA (L234A/L235A/P329A), EU numbering
Take B15: the dissociation constant (Kd) with human ActRIIB [3] came out at 0.003 nM.

B16: Antibody Mauldascha (antibody, V domains shown)
VH: QVQLVQSGAEVKKPGSSVKVSCKASGYTFTSSYINWVRQAPGQGLEWMGTINAVSGSTSYAQKFQGRVTITADESTSTAYMELSSLRSEDTAVYYCARGGWFDYWGQGTLVTVSS
VL: QSALTQPRSVSGSPGQSVTISCTGTSSDVGSYNYVNWYQQHPGKAPKLMIYGVSKRESGVPDRFSGSKSGNTASLTISGLQAEDEADYYCGTFAGGKYYGVFGGGTKLTVL
Turning to B16, in assay [4], the IC50, Activin SMAD RGA was 1.83 nM; the IC50, Myostatin SMAD RGA worked out at 1.42 nM; the IC90, Activin SMAD RGA was 6.72 nM; the IC90, Myostatin SMAD RGA was 13.4 nM.

For the origin of these results see patent US20250243286A1 (SIXPEAKS BIO, published 2025).
